Measurements published in publication PMC4763255, “Diversity between mammalian tolloid proteinases: Oligomerisation and non-catalytic domains influence activity and specificity” (Scientific Reports, 2016).

T1: ΔN-chordin (UniProt Q9H2X0 127-955)
T1 construct: chordin, N-terminally truncated form called ΔN-chordin
T1 sequence (looked up): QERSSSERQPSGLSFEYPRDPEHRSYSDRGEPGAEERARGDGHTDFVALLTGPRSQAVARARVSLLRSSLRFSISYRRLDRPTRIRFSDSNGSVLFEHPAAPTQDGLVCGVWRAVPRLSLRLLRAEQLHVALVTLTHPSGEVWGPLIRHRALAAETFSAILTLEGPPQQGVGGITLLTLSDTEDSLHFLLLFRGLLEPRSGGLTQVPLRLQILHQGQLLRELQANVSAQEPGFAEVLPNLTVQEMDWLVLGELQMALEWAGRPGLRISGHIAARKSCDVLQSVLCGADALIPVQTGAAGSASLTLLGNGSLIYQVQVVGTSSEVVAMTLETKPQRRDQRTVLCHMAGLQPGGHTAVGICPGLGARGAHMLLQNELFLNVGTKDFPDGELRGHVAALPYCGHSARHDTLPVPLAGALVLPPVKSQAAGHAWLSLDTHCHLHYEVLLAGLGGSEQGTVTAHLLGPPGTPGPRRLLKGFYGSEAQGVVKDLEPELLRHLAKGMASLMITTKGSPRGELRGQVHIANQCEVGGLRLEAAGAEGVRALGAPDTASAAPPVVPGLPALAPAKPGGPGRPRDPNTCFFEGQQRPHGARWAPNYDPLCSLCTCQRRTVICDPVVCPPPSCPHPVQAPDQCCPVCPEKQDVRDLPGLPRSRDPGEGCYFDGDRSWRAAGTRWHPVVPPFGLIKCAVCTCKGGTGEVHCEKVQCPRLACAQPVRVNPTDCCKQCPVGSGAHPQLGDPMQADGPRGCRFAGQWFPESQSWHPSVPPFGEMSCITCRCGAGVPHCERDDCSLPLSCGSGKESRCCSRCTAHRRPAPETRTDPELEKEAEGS


Target: the molecule itself
Assay: negative-stain electron microscopy, single-particle analysis; TLL-2 ~10 ug/ml in 10 mM HEPES, 500 mM NaCl, 2 mM CaCl2, pH 7.4 on carbon-coated grids, 4% uranyl acetate
Details: not given

Binder | stoichiometry N
human mammalian tolloid like-2 (TLL-2) (enzyme, UniProt Q9Y6L7 26-1015, looked up, N-linked glycans (5 predicted from primary sequence; shift with PNGaseF), purified as a secreted protein; predicted mass of a monomer printed as 98.58 kDa; also called mTLL2; mTLL-2) ATTSRTERIWPGGVIPYVIGGNFTGSQRAIFKQAMRHWEKHTCVTFIERTDEESFIVFSYRTCGCCSYVGRRGGGPQAISIGKNCDKFGIVAHELGHVVGFWHEHTRPDRDQHVTIIRENIQPGQEYNFLKMEAGEVSSLGETYDFDSIMHYARNTFSRGVFLDTILPRQDDNGVRPTIGQRVRLSQGDIAQARKLYKCPACGETLQDTTGNFSAPGFPNGYPSYSHCVWRISVTPGEKIVLNFTSMDLFKSRLCWYDYVEVRDGYWRKAPLLGRFCGDKIPEPLVSTDSRLWVEFRSSSNILGKGFFAAYEATCGGDMNKDAGQIQSPNYPDDYRPSKECVWRITVSEGFHVGLTFQAFEIERHDSCAYDYLEVRDGPTEESALIGHFCGYEKPEDVKSSSNRLWMKFVSDGSINKAGFAANFFKEVDECSWPDHGGCEHRCVNTLGSYKCACDPGYELAADKKMCEVACGGFITKLNGTITSPGWPKEYPTNKNCVWQVVAPAQYRISLQFEVFELEGNDVCKYDFVEVRSGLSPDAKLHGRFCGSETPEVITSQSNNMRVEFKSDNTVSKRGFRAHFFSDKDECAKDNGGCQHECVNTFGSYLCRCRNGYWLHENGHDCKEAGCAHKISSVEGTLASPNWPDKYPSRRECTWNISSTAGHRVKLTFNEFEIEQHQECAYDHLEMYDGPDSLAPILGRFCGSKKPDPTVASGSSMFLRFYSDASVQRKGFQAVHSTECGGRLKAEVQTKELYSHAQFGDNNYPSEARCDWVIVAEDGYGVELTFRTFEVEEEADCGYDYMEAYDGYDSSAPRLGRFCGSGPLEEIYSAGDSLMIRFRTDDTINKKGFHARYTSTKFQDALHMKK | 2

target: T1, ΔN-chordin; assay: SPR; tolloid fragments immobilised on a GLC chip by amine coupling, ΔN-chordin injected as analyte at increasing concentrations; ProteOn XPR36; 10 mM HEPES, 150 mM NaCl, 2 mM CaCl2, 0.05% Tween 20, pH 7.4, 25 °C; 1:1 Langmuir model; triplicate; details: both partners purified

Binder | Kd [nM]
TLL1 CUB4-CUB5 (domain or fragment, UniProt O43897 774-1003, looked up, mammalian tolloid like-1 (TLL-1); domains CUB4 and CUB5; Cloned at OPPF-UK in pOPINTTGneo; also called TLL1-C4C5; C4C5 from TLL-1) CEQKIHSPSGLITSPNWPDKYPSRKECTWEISATPGHRIKLAFSEFEIEQHQECAYDHLEVFDGETEKSPILGRLCGNKIPDPLVATGNKMFVRFVSDASVQRKGFQATHSTECGGRLKAESKPRDLYSHAQFGDNNYPGQVDCEWLLVSERGSRLELSFQTFEVEEEADCGYDYVELFDGLDSTAVGLGRFCGSGPPEEIYSIGDSVLIHFHTDDTINKKGFHIRYKSI | 0.056 ± 0.01
TLL1 CUB1-CUB2-EGF1 (domain or fragment, UniProt O43897 349-615, looked up, mammalian tolloid like-1 (TLL-1); domains CUB1, CUB2 and EGF1; Cloned at OPPF-UK in pOPINTTGneo; also called TLL1-C1C2E1; C1C2E1 from TLL-1) CGETLQESNGNLSSPGFPNGYPSYTHCIWRVSVTPGEKIVLNFTTMDLYKSSLCWYDYIEVRDGYWRKSPLLGRFCGDKLPEVLTSTDSRMWIEFRSSSNWVGKGFAAVYEAICGGEIRKNEGQIQSPNYPDDYRPMKECVWKITVSESYHVGLTFQSFEIERHDNCAYDYLEVRDGTSENSPLIGRFCGYDKPEDIRSTSNTLWMKFVSDGTVNKAGFAANFFKEEDECAKPDRGGCEQRCLNTLGSYQCACEPGYELGPDRRSCE | 0.057 ± 0.003
mTLD CUB1-CUB2-EGF1 (domain or fragment, UniProt P13497 322-588, looked up, mammalian tolloid (mTLD), product of the Bmp1 gene; domains CUB1, CUB2 and EGF1 (shared with BMP-1); Cloned at OPPF-UK in pOPINTTGneo; also called mTLD-C1C2E1; C1C2E1 from mTLD/BMP1) CGETLQDSTGNFSSPEYPNGYSAHMHCVWRISVTPGEKIILNFTSLDLYRSRLCWYDYVEVRDGFWRKAPLRGRFCGSKLPEPIVSTDSRLWVEFRSSSNWVGKGFFAVYEAICGGDVKKDYGHIQSPNYPDDYRPSKVCIWRIQVSEGFHVGLTFQSFEIERHDSCAYDYLEVRDGHSESSTLIGRYCGYEKPDDIKSTSSRLWLKFVSDGSINKAGFAVNFFKEVDECSRPNRGGCEQRCLNTLGSYKCSCDPGYELAPDKRRCE | 0.278

Next, values leading:

Kd [nM] | Binder
0.247 ± 0.26 | TLL2 CUB1-CUB2-EGF1 (domain or fragment, human, UniProt Q9Y6L7 351-617, looked up, mammalian tolloid like-2 (TLL-2), human; domains CUB1, CUB2 and EGF1; Cloned at OPPF-UK in pOPINTTGneo; also called TLL2-C1C2E1; C1C2E1 from TLL-2) CGETLQDTTGNFSAPGFPNGYPSYSHCVWRISVTPGEKIVLNFTSMDLFKSRLCWYDYVEVRDGYWRKAPLLGRFCGDKIPEPLVSTDSRLWVEFRSSSNILGKGFFAAYEATCGGDMNKDAGQIQSPNYPDDYRPSKECVWRITVSEGFHVGLTFQAFEIERHDSCAYDYLEVRDGPTEESALIGHFCGYEKPEDVKSSSNRLWMKFVSDGSINKAGFAANFFKEVDECSWPDHGGCEHRCVNTLGSYKCACDPGYELAADKKMCE
0.19 ± 0.02 | mTLD CUB4-CUB5 (domain or fragment, UniProt P13497 747-976, looked up, mammalian tolloid (mTLD), product of the Bmp1 gene; domains CUB4 and CUB5; Cloned at OPPF-UK in pOPINTTGneo; also called mTLD-C4C5; C4C5 from mTLD) CDHKVTSTSGTITSPNWPDKYPSKKECTWAISSTPGHRVKLTFMEMDIESQPECAYDHLEVFDGRDAKAPVLGRFCGSKKPEPVLATGSRMFLRFYSDNSVQRKGFQASHATECGGQVRADVKTKDLYSHAQFGDNNYPGGVDCEWVIVAEEGYGVELVFQTFEVEEETDCGYDYMELFDGYDSTAPRLGRYCGSGPPEEVYSAGDSVLVKFHSDDTITKKGFHLRYTST
0.25 ± 0.02 | TLL2 CUB4-CUB5 (domain or fragment, human, UniProt Q9Y6L7 776-1005, looked up, mammalian tolloid like-2 (TLL-2), human; domains CUB4 and CUB5; Cloned at OPPF-UK in pOPINTTGneo; also called TLL2-C4C5; C4C5 from TLL-2) CAHKISSVEGTLASPNWPDKYPSRRECTWNISSTAGHRVKLTFNEFEIEQHQECAYDHLEMYDGPDSLAPILGRFCGSKKPDPTVASGSSMFLRFYSDASVQRKGFQAVHSTECGGRLKAEVQTKELYSHAQFGDNNYPSEARCDWVIVAEDGYGVELTFRTFEVEEEADCGYDYMEAYDGYDSSAPRLGRFCGSGPLEEIYSAGDSLMIRFRTDDTINKKGFHARYTST
